Experimental data: the supplement of paper PMC9170038

Test system: MS2 coat protein
Assay: apparent KD of MS2 coat protein; designed switch direction (-1 OFF switch, 1 ON switch): -1; higher = weaker reporter binding
How it was run: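 Designed RNA switches sharing common flanks were transcribed on Illumina chips by stalled E. coli RNA polymerase. They were titrated with SNAP-549-labelled MS2 coat protein, from 0.7 or 1.5 nM doubling to 3 µM, in Tris-HCl pH 7.5 buffer with KCl, MgCl2, BSA, DTT, tRNA and Tween-20. Titrations ran without input, with 200 uM small-molecule ligand, or with an oligonucleotide input. The apparent KD of each design is the median over its clusters, after curve-fitting of normalised cluster fluorescence.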

[1] = input ligand: microRNA oligo, concentration not stated
[2] = Eterna round: R95, input ligand: FMN 200 uM
[3] = Eterna round: R95, input ligand: microRNA oligo, concentration not stated
[4] = Eterna round: R95, input ligand: none

Row | Sequence | apparent KD of MS2 coat protein [1] [nM] | apparent KD of MS2 coat protein (input ligand: none) [nM] | apparent KD of MS2 coat protein (input ligand: FMN 200 uM) [nM] | apparent KD of MS2 coat protein [2] [nM] | apparent KD of MS2 coat protein [3] [nM] | apparent KD of MS2 coat protein [4] [nM]
1 | CUCAUGUGAGGAUAUAGUGCGUCUUCUAUUAUUAUUGAGUACUAGAAGGCACAUGAGGAUCACCCAUGUAGCAC [Ex4 - 3 - 45] (Eterna round: R96, puzzle: Exclusion 4) | 29.2 | 57.6 |  |  |  | 
2 | CCGGUUGGCGCAGGAUAUACAUGAGGAUCACCCAUGUUCAUGAGGAUCAUCCAUGAGUUUUUGUUGUAGAAGGGUGGCCCGGCC (Eterna round: R96, puzzle: Exclusion NG 2) | 60.8 | 98.4 | 117 |  |  | 
3 | UUUUUCAGGCCAGAUCCUCACAUGAGGAUCACCCAUGUGCUCGUCUGUUUUCGCGCUAGCUUUUUUUUGGUAGGGCU [Level Boss var2-17] (puzzle: Sensor v3, turn-off variant 1) |  |  |  | 329 | 29.7 | 325
4 | AAGAAUUAGUCAGGAUAUAGCGGCCAAGAACUACUAGAAGGGAUUAGACAUGAGGAUCACCCAUGUGAUCUUUUUGUAGGGACG [Eternabot solution 15] (Eterna round: R96, puzzle: Exclusion NG 1) | 25.7 | 41.2 | 32.6 |  |  | 
5 | AGUACUAACACGAAAGUGUUAGUACAAUAAGCUUGUGUUACAUGAGGAUCACCCAUGUCCUCAUAAGCUCGUCUUAA [Mat - Sensor v3 - Turn-off var 2 - D49] (puzzle: Sensor v3, turn-off variant 2) |  |  |  | 39.9 | 200 | 47.4
6 | UUUUUCUCAGGAUAUACAUGAGGAUCACCCAUGUAUAUUAAUGGUAAUACAUGGGAAUGUAGAAGGGAGCUCAU [Omei Ex3 Pseudoloop 15] (Eterna round: R97, puzzle: Exclusion 3) |  | 122 | 112 |  |  | 
7 | GAUCUGCAGCAGGAUAUGCUCUCGGAAACGAGCGCAGAAGGGCUGACAUGAGGAUCACCCAUGUAAUAAUGGCC [EX6 A.24] (Eterna round: R97, puzzle: Exclusion 6) |  | 44.2 | 89.7 |  |  | 
8 | AUUGAUAGCACAGGAUAUUGAGAUUUGAAUUGACAAGAAGGGUGUACAUGAGGAUCACCCAUGUAAUGGGAGAAUGAUUGAUUA [JR_ExcNG1_Sub001] (Eterna round: R96, puzzle: Exclusion NG 1) | 1040 | 1640 | 1260 |  |  | 
9 | GACAUUUGAGGAUAUGCAGCUAGCUUCGUUUUCAAAUCGAGACAUGAGGAUCACCCAUGUAGAAGGCAAGGUCG [Eternabot (L1) Solution 88] (Eterna round: R97, puzzle: Exclusion 2) |  | 31.9 | 29.4 |  |  | 
10 | ACAAGCUUUUAGAUUUUCAACAUGAGGAUCACCCAUGUUCGUCUUGUGCUCGGGCUUGGGCGGUGUCCGGGUUUGGG [JL TOV1 3.77 sellena mod] (Eterna round: R97, puzzle: Sensor, turn-off variant 1) |  | 34.7 | 33 |  |  | 
11 | UGCCGUUGAGGAUAUACGUAGAAAUAGAUUCAUGUAAAACUACAUGAGGAUCACCCAUGUAGAAGGCAAUGGCU [Mat - Exclusion 2 - JL Mod - D47] (Eterna round: R97, puzzle: Exclusion 2) |  | 24.4 | 221 |  |  | 
12 | ACCUCACAUGAGGAUCACCCAUGUUAGGAUAUCUCGACACUCCGCGGGCGGUAGCGUCAGAGAAGGAACGUGCU [Iszaxeza] (puzzle: Exclusion 1) |  |  |  |  | 23.1 | 
13 | AGCGGGUUAGGAUAUACCUGGGUAUGAAAAGCCUAACCUCGACAUGAGGAUCACCCAUGUAGAAGGAGCUCGGC [Eternabot (Original) Solution 3] (Eterna round: R97, puzzle: Exclusion 2) |  | 36.9 | 91 |  |  | 
14 | CGUUCUCACGUCAGGAUAUAGGACUUGCACGUGUGCUAGAAGGGACAUGAGGAUCACCCAUGUAAAUAAGAAAG [Quonbi] (Eterna round: R97, puzzle: Brourd's mod of Exclusion 4) |  | 27.1 | 37.5 |  |  | 
15 | CAGCUGAAUGUCAGGAUAUCUAGAGCUGCGGCUCUAGAGAAGGGACAUGAGGAUCACCCAUGUCACUCCAGCUG [BmEx4/3-B3] (Eterna round: R97, puzzle: Brourd's mod of Exclusion 4) |  | 16.4 | 21.3 |  |  | 
16 | AAGUACCGGUGAGGAUAUUUUUAAUAGAACUUUAUGAUAUACAUGAGGAUCACCCAUGUUACUUUAAAGAAGGCAUCGGAUUAA [Mat - Exclusion NG 2 - Mod of JL - D86] (Eterna round: R96, puzzle: Exclusion NG 2) | 12.5 |  |  |  |  | 
17 | CUCUUGGCAGGAUAUGCUCUCUUAGACAUGAGGAUCACCCAUGUGUUCAUUCUUUCUUUUGCAGAAGGGCCUUAAC [JR_E5_Sub046] (puzzle: Exclusion 5) |  |  |  |  | 65.2 | 
18 | UAAAGGCUAGGAUAUCGCACCUUCGACAUGAGGAUCACCCAUGUAUGUCGAUGGUAAAAUCGAGAAGGAGCGAGAA [Artiedqu] (puzzle: Exclusion 5) |  |  |  | 31.7 | 21.7 | 17.8

Row | Sequence | apparent KD of MS2 coat protein [1] [nM] | apparent KD of MS2 coat protein (input ligand: none) [nM] | apparent KD of MS2 coat protein (input ligand: FMN 200 uM) [nM] | apparent KD of MS2 coat protein [2] [nM] | apparent KD of MS2 coat protein [3] [nM] | apparent KD of MS2 coat protein [4] [nM]
19 | ACCUCACAUGAGGAUCACCCAUGUCAGGAUAUGUACCUAGCCAAAACAAAGGCCAGAAGCAGAAGGGACUGCGG [Ralerezara] (puzzle: Exclusion 1) |  |  |  | 24.1 | 53.4 | 44.6
20 | AUAGAGUUAGGAUAUGAGAGGCCGAACAUGAGGAUCACCCAUGUUCCGCGUGUUGCUCCCUUAGAAGGAACGAAUA [EX5 B.3] (Eterna round: R97, puzzle: Exclusion 5) |  | 22 | 14.7 |  |  | 
21 | AAUUAGUAUGUGAGGAUAUUGAUGAGAUGAUGGUUUAAGAAGGCACAUGAGGAUCACCCAUGUAGGAAAUAACG [JR_BMEx4_Sub005] (Eterna round: R97, puzzle: Brourd's mod of Exclusion 4) |  | 24.4 | 37.8 |  |  | 
22 | AAGUACCGUCACGAUAGUGAUGGUACAACAAGCAUGUAAACAUGAGGAUCACCCAUGUCCUCGAAUGCUCGUCUUAU [Sensor 3 - 66] (puzzle: Sensor v3, turn-off variant 2) |  |  |  | 554 | 772 | 519
23 | CGAUAUAAGUCAGGAUAUGAGCGCAACUGACGAUCAGAAGGGACACAUGAGGAUCACCCAUGUGAUUUAUCAAUAUUAUACAUC [Prohibition 91 - Jieux - Exclusion NG 1] (Eterna round: R96, puzzle: Exclusion NG 1) | 27.3 | 31.6 | 36.5 |  |  | 
24 | CGGUGUAGAGGAUAUACGUGAAGAUAAGAAAAUAAUAAUUAACAUGAGGAUCACCCAUGUAGAAGGCUAUAGCG [JR_Ex2_Sub082] (Eterna round: R97, puzzle: Exclusion 2) |  | 24.9 | 66.3 |  |  | 
25 | GUUAAGUGAGGAUAUGGUGAGUAGUGCCUGAGCGCUGCUCACCAGAAGGCACAUGAGGAUCACCCAUGUAUAGC [JL-ex4-2.06 denovo] (puzzle: Exclusion 4) |  |  |  |  | 15.2 | 
26 | UUUUAGAGAGGAUAUAUAUUUUAAAACAUGAGGAUCACCCAUGUAAUUUUAUGGGAGUAAAUAGAAGGCUCAUUUA [JMFs Solution 3] (puzzle: Exclusion 5) |  |  |  | 48.7 | 51 | 56.3
27 | GAUGAGGUAGGAUAUACGAGAAGAUAGGGUAGAGAGAGAACACAUGAGGAUCACCCAUGUAGAAGGACCAGUAG [Mat - Exclusion 2 - Mod of my Tesla design - D74] (puzzle: Exclusion 2) |  |  |  | 48.9 | 21.1 | 21.4
28 | CAAUUCUGAGGAUAUGUGCCUCUGGACAUGAGGAUCACCCAUGUGGAGGCUGUAUGGGAGGCAGAAGGUAGAGAUC [Eternabot (L1) Solution 7] (Eterna round: R97, puzzle: Exclusion 5) |  | 18.2 | 16.4 |  |  | 
29 | AUAAGUAUAUAGGAUAUCUAGCUGGAUACAGCUAGAGAAGGAUGUACAUGAGGAUCACCCAUGUAAAUCUCAAU [Ex6/12-A1] (Eterna round: R97, puzzle: Exclusion 6) |  | 15.1 | 18.7 |  |  | 
30 | CGGUACUGAGGAUAUACAUGAGGAUCACCCAUGUGUUCUAGCUAGCGUACUGGCUAUUGUAGAAGGCGGUGCUG [JL-ex3-3.24 Brourd mod] (puzzle: Exclusion 3) |  |  |  |  | 17.5 | 
31 | AAUAAGCGAGGAUAUACACCCGGAAAACGGGAACGGGCGAGACAUGAGGAUCACCCAUGUAGAAGGCGCGUCAA [Sogexe] (Eterna round: R97, puzzle: Exclusion 2) |  | 77.9 | 28 |  |  | 
32 | CCCACCUCAUGAACAACAUGAGGAUCACCCAUGUUGAAGACUAAGGAUAUCGUACUCGAUGAAUGCGAGAAGGUGGCACUUCGA [Eternabot solution 36] (Eterna round: R96, puzzle: Exclusion NG 3) | 20.7 | 28.7 | 37.3 |  |  | 
33 | UUUUAACAUGAGGAUCACCCAUGUGAGGAUAUCGAAAUUUAUAUUUAUAUUUAUAAAACGAGAAGGCACAUUUU [JMF 91] (puzzle: Exclusion 1) |  |  |  |  | 113 | 
34 | UAUUAGCAAGCGAGAUCCCACAUGAGGAUCACCCAUGUAAAGCAUCCAGAAUUACUGGGUGCAAAAGCUCGUCUUUA [Winner reversed engineered 5] (Eterna round: R97, puzzle: Sensor, turn-off variant 1) |  | 40 | 28.7 |  |  | 
35 | GAGAUGUGAGGAUAUCUAGACCAUGGAAAAGCCACGGUCCGAGAGAAGGCACAUGAGGAUCACCCAUGUGAUGA [Quedte] (puzzle: Exclusion 4) |  |  |  |  | 43.7 | 
